Assay results from PMC7150778 (2020).
Where two headings read alike, the source gives them in different places.

T1: p85β iSH2 (UniProt O00459)
T1 chain: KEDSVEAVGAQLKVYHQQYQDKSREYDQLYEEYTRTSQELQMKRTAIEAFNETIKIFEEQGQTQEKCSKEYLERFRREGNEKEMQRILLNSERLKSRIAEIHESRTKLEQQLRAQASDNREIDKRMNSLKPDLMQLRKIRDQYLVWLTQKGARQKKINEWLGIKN

B1: 1918 NS1 ED-ΔCTT (protein)
chain: TMASVPASRYLTDMTLEELSRDWSMLIPKQKVAGPLCIRMDQAIMDKNIILKANFSVIFDRLETLILLRAFTEEGAIVGEISPLPSLPGHTAEDVKNAVGVLIGGLEWNDNTVRVSETLQRFAWRSSNENGRPPLTPKQKREMAGTIRSEV
B2: 1918 NS1 ED-CTT (protein)
chain: B1 chain

Legend:
[1] = target: NS1 ED (Influenza A virus) (UniProt P69278); conditions: cited from earlier work
[2] = target: p85β iSH2 (UniProt O00459); conditions: cited from earlier work
[3] = target: T1, p85β iSH2

| Molecule | Kd [3] | also measured |
| --- | --- | --- |
| NS1 ED (from UniProt P69278) | – | Kd [1]: 89000 nM |
| 1918 NS1 ED-CTT (from UniProt Q0PDM0) | – | Kd [2]: 300 nM |
| B1 | 370 nM | – |
| B2 | 700 nM | – |
